For 94 variants, protein stability index results are on record in the supplement of paper PMC10567573.

B1: RIPK4 (parent)
chain: VSVNAQTLDGRTPLHLAAQRGHYR
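Note: lentivirally expressed fusions sorted by FACS into six bins by GFP to DsRed ratio, PSI derived from sequencing read proportions per bin multiplied by bin number.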

The variants in this data set derive from B1. Nature of the data set: protein stability index of a GFP-peptide fusion (GPS, HEK-293T) (PSI 1-6); higher = more stable. Particulars: c terminus: a fixed tail appended.
For VSVNAQTLDQRTPLHLAAQRGHYR [G10Q], the protein stability index came out at 3.6.
Then VSVNAQTLDFRTPLHLAAQRGHYR [G10F], with 2.4; and VSVNAQTLDKRTPLHLAAQRGHYR [G10K], with 3.09.
The same measure for VSVNAQTLDERTPLHLAAQRGHYR [G10E]: 3.59; for VSVNAQTLDIRTPLHLAAQRGHYR [G10I]: 3.38; for VSVNAQTLDPRTPLHLAAQRGHYR [G10P]: 3.66.
The same measure for VSVNAQTLDLRTPLHLAAQRGHYR [G10L]: 2.81.
For the variant VSVNAQTLDYRTPLHLAAQRGHYR [G10Y], the protein stability index came to 2.66.
Consider VSVNAQTLDGRTPLHLAAQRGHYG [R24G], for which the protein stability index was determined as 3.1.
The same measure for VSVNAQTLDGRTPLHLAAQRGHYT [R24T]: 2.99.
Then VSVNAQTLDGRTPLHLAAQRGHYM [R24M], with 2.87; and VSVNAQTLDGRTPLHLAAQRGHYK [R24K], with 3.11; and VSVNAQTLDGRTPLHLAAQRGHYE [R24E], with 2.87.
Then VSVNAQTLDGRTPLHLAAQRGHYP [R24P], with 3.08; and VSVNAQTLDGRTPLHLAAQRGHYL [R24L], with 2.13.
For VSVNAHTLDGRTPLHLAAQRGHYR [Q6H], the protein stability index was 3.52.
Then VSVNAFTLDGRTPLHLAAQRGHYR [Q6F], with 2.22.
On to VSVNAKTLDGRTPLHLAAQRGHYR [Q6K], for which the protein stability index came out at 3.21.
The same measure for VSVNAATLDGRTPLHLAAQRGHYR [Q6A]: 3.43; for VSVNASTLDGRTPLHLAAQRGHYR [Q6S]: 3.78; for VSVNACTLDGRTPLHLAAQRGHYR [Q6C]: 2.62.
Then VSVNALTLDGRTPLHLAAQRGHYR [Q6L], with 3.69; and VSVNAQTLDGRTPLHLALQRGHYR [A18L], with 2.64; and VSVNAQTLDGRTPLHLAGQRGHYR [A18G], with 3.5.
Then VSVNAQTLDGRTPLHLATQRGHYR [A18T], with 3.08.
On to VSVNAQTLDGRTSLHLAAQRGHYR [P13S], for which the protein stability index came to 3.3.
Then VSVNAQTLDGRTGLHLAAQRGHYR [P13G], with 2.94; and VSVNAQTLDGRTYLHLAAQRGHYR [P13Y], with 1.93; and VSVNAQTLDGRTLLHLAAQRGHYR [P13L], with 2.25.
The same measure for VSVNAQTLDGRTRLHLAAQRGHYR [P13R]: 3.1; for VSVNAQTLDGRPPLHLAAQRGHYR [T12P]: 3.54.
Then VSVNAQTLDGRVPLHLAAQRGHYR [T12V], with 3.13; and VSVNAQTLDGRGPLHLAAQRGHYR [T12G], with 3.05; and VSVNAQTLDGRHPLHLAAQRGHYR [T12H], with 2.68.
In the case of VSVNAQTLDGREPLHLAAQRGHYR [T12E], the protein stability index turned out to be 3.58.
Then VSVNAQTLDGRNPLHLAAQRGHYR [T12N], with 2.96; and VSVNAQTLDGRYPLHLAAQRGHYR [T12Y], with 2.4.
The same measure for VSVNAQTLDGRAPLHLAAQRGHYR [T12A]: 3.48; for GSVNAQTLDGRTPLHLAAQRGHYR [V1G]: 3.76.
On to DSVNAQTLDGRTPLHLAAQRGHYR [V1D], for which the protein stability index turned out to be 4.66.
Consider HSVNAQTLDGRTPLHLAAQRGHYR [V1H], for which the protein stability index came to 3.79.
Then ESVNAQTLDGRTPLHLAAQRGHYR [V1E], with 3.97.
The same measure for VSVNAQTLDGRTPLHLAAMRGHYR [Q19M]: 2.88; for VSVNAQTLDGRTPLHLAAFRGHYR [Q19F]: 1.94.
Turning to VSVNAQTLDGRTPLHLAANRGHYR [Q19N], the protein stability index was found to be 3.41.
Then VSVNAQTLDGRTPLHLAAWRGHYR [Q19W], with 2.12; and VSVNAQTLDGRTPLHLAAPRGHYR [Q19P], with 2.67; and VSVNAQTLDGRTPLHLAASRGHYR [Q19S], with 3.08.
For VSVNAQTLAGRTPLHLAAQRGHYR [D9A], the protein stability index turned out to be 3.09.
With VSVNAQTLPGRTPLHLAAQRGHYR [D9P], the protein stability index stood at 3.49.
Then VSVNAQTLYGRTPLHLAAQRGHYR [D9Y], with 2.48.
Regarding VSVNAQTLIGRTPLHLAAQRGHYR [D9I], the protein stability index came out at 2.33.
For VSVNAQTLGGRTPLHLAAQRGHYR [D9G], the protein stability index amounted to 3.02.
For VSVNAQTLQGRTPLHLAAQRGHYR [D9Q], the protein stability index amounted to 2.92.
The same measure for VSVNAQTLCGRTPLHLAAQRGHYR [D9C]: 3.14; for VPVNAQTLDGRTPLHLAAQRGHYR [S2P]: 3.75; for VIVNAQTLDGRTPLHLAAQRGHYR [S2I]: 2.18.
Then VGVNAQTLDGRTPLHLAAQRGHYR [S2G], with 3.97.
Then VVVNAQTLDGRTPLHLAAQRGHYR [S2V], with 2.22.
As to VTVNAQTLDGRTPLHLAAQRGHYR [S2T], the protein stability index is 2.91.
The same measure for VAVNAQTLDGRTPLHLAAQRGHYR [S2A]: 3.24.
Turning to VSVNAQTLDGRTPLHLAAQRFHYR [G21F], the protein stability index stood at 2.34.
The same measure for VSVNAQTLDGRTPLHLAAQRSHYR [G21S]: 2.66; for VSVNAQTLDGRTPLHLAAQRHHYR [G21H]: 3.26.
For the variant VSVNAQTLDGRTPLHLAAQRWHYR [G21W], the protein stability index is 2.05.
Then VSVNAQTLDGRTPLHLAAQRMHYR [G21M], with 2.68; and VSVNAQTLDGRTPLHLAAQRKHYR [G21K], with 3.33.
The same measure for VSVNAQTLDGRTPLHLAAQRPHYR [G21P]: 3.49; for VSVNAQTLDGRTPLHLAAQRAHYR [G21A]: 2.77; for VSVNAQTLDGRTPLHLAAQHGHYR [R20H]: 2.53.
The same measure for VSVNAQTLDGRTPLHLAAQEGHYR [R20E]: 3.43; for VSVNAQTLDGRTPLHLAAQPGHYR [R20P]: 2.95; for VSVNAQTLDGRTPLHLAAQWGHYR [R20W]: 2.5.
For the variant VSVNAQTLDGRTPLHLAAQDGHYR [R20D], the protein stability index was found to be 3.62.
Then VSVNAQTLDGRTPLHLAAQLGHYR [R20L], with 2.13; and VSVNAQTLDGRTPLHLAAQTGHYR [R20T], with 2.85; and VSVNAQTLDGRTPLHLAAQYGHYR [R20Y], with 2.41.
In the case of VSVNAQTLDGRTPLHLAAQCGHYR [R20C], the protein stability index was 2.69.
The same measure for VSVNAQTLDGRTPLHLAAQGGHYR [R20G]: 2.96; for VSVNAQGLDGRTPLHLAAQRGHYR [T7G]: 3.35; for VSVNAQYLDGRTPLHLAAQRGHYR [T7Y]: 2.97.
The same measure for VSVNAQHLDGRTPLHLAAQRGHYR [T7H]: 3.12; for VSVNAQSLDGRTPLHLAAQRGHYR [T7S]: 3.29; for VSVNAQILDGRTPLHLAAQRGHYR [T7I]: 2.63.
Then VSVNAQALDGRTPLHLAAQRGHYR [T7A], with 3.34; and VSVNAQELDGRTPLHLAAQRGHYR [T7E], with 3.94; and VSVNAQPLDGRTPLHLAAQRGHYR [T7P], with 3.36.
As to VSVNAQTDDGRTPLHLAAQRGHYR [L8D], the protein stability index worked out at 3.74.
Then VSVNAQTFDGRTPLHLAAQRGHYR [L8F], with 3.29; and VSVNAQTHDGRTPLHLAAQRGHYR [L8H], with 3.73; and VSVNAQTMDGRTPLHLAAQRGHYR [L8M], with 3.75.
Then VSVNAQTWDGRTPLHLAAQRGHYR [L8W], with 3.11; and VSVNAQTIDGRTPLHLAAQRGHYR [L8I], with 3.58; and VSVNAQTSDGRTPLHLAAQRGHYR [L8S], with 3.5.
